# Reference: patent US12702692B2, “Therapeutic use of calcium-activated chloride channel peptide activator” (CENTRE NATIONAL DE LA RECHERCHE SCIENTIFIQUE, priority 2020, dated 2026)
# Biological target: T1, TMEM16A (Mus musculus, UniProt Q8BHY3)
# T1 construct: expressed in transfected cells; host or cells: HEK293T
# T1 sequence (Q8BHY3 1-960): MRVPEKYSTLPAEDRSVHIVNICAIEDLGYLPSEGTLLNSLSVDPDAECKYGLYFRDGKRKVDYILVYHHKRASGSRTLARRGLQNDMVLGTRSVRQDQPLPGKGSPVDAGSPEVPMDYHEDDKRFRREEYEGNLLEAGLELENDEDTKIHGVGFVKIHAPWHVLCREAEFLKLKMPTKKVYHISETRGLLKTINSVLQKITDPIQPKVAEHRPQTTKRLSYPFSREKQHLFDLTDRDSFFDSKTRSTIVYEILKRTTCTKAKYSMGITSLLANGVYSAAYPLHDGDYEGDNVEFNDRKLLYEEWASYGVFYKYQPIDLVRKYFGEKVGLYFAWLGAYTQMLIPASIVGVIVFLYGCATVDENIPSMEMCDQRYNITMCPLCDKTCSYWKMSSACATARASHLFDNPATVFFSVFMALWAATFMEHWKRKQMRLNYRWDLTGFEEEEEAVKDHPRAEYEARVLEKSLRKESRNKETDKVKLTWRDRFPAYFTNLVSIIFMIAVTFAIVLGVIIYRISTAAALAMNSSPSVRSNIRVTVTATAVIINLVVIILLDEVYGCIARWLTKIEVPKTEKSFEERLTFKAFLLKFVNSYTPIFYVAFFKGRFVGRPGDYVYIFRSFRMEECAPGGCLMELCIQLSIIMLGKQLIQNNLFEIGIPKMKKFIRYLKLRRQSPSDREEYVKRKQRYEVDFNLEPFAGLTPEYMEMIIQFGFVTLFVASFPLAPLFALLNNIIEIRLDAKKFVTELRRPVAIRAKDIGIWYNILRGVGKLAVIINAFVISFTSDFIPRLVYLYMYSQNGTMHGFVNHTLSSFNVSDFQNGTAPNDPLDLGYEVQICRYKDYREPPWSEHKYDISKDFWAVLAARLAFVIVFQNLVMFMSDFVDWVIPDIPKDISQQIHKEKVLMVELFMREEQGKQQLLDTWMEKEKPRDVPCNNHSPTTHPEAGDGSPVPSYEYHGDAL
# Experiment: Whole-cell patch-clamp of HEK293T cells expressing TMEM16A
# Format: cell-based
# Procedure: mTMEM16A (kindly provided by Dr Lily Yeh Jan) and hKCNE1 cDNA were subcloned in pIRES2eGFP, pXOOM, pcDNA3.1, pCDNA3.1-GFP and pCMV-HA vectors. Truncations and mutations on KCNE1 were generated by PCR. For SiMPull experiments, HA-tags were fused to the N-terminus of sequences, whereas GFP-tags were fused to C-terminal part. HEK293T and PCT cells were transiently co-transfected using Lipofectamine 2000 or the calcium phosphate method with a total amount of 1 and 3.5 μg of DNA, respectively, and seeded on 18 mm diameter coverslips. HEK cells were maintained in DMEM with 5% FBS on poly-L-lysine-coated glass coverslips in 12 well plates. PCT cells from wild type and knock-out mice were microdissected as described previously and maintained in F12 (Gibco) on collagen-coated glass coverslips.
# HEK293T and PCT cell electrophysiology was performed 24-48 h after transfection. For whole-cell patch-clamp experiments cells were recorded in a bath solution containing (in mM) 150 NaCl, 5 KCl, 2 CaCl2 and 10 HEPES, pH 7.4 and 0.05% BSA. The glass pipettes (2-5 MΩ of resistance) were filled with (in mM) 5 NaCl, 135 CsCl, 2 MgCl2, 5 EGTA, 10 HEPES, pH 7.3. Cells were recorded either after incubation of 30 min with the peptide or during perfusion with the peptide. Total calcium concentration was calculated with Maxchelator (maxchelator.standford.edu) for a temperature of 20° C. HEK293T and PCT cells were recorded at room temperature in voltage-clamp mode using an Axopatch 200A (Molecular Devices) amplifier. Signals were filtered at 10 kHz and digitalized at 20 kHz. Whole-cell currents were elicited by voltage-ramps (from −100 to +100 mV, 1 s) and I-V stimulation pulses (from −100 to +100 mV in 20 mV increments, 1 s each pulse), holding the cells at −80 mV. Current densities were measured at +100 mV. Cell recordings, data acquisition and analysis of electrophysiology experiments were performed using pClamp software (Molecular Devices).
sequence,measurement,setting,value
LARRSPRSSDGKL (SEQ ID NO: 2) (amino acid residues between positions 30 to 42 of the human KCNE1 protein sequence) [N13ter],current density elicited by peptide at +100 mV,"100 μM peptide, HEK293T cells expressing TMEM16A alone",15.48±3.25 pA/pF
same,potency on TMEM16A compared with rat N13 peptide,"100 μM, HEK293T expressing TMEM16A and Xenopus oocytes (FIG. 9)",more potent
same,effect of peptide application on TMEM16A current,"HEK293T cells expressing TMEM16A alone, 100 μM for Nter13, S38G and rat peptides",induces TMEM16A current properties
